This passage reports pKa results from PMC8748748.

Holding throughout (assay): potentiometry
In series [1] the target is Lys1 (position 1, -----KCNTAT).
Series [2] has as its target Nterm1 (position 1, -----KCNTAT).
For series [3], the target named is Tyr37 (position 37, VGSNTY-----).
The next series concerns the target His18 (position 18, …).
The target of series [4] is His18 (position 18, ANFLVHS----).
The mark [5] stands for this setting: 298 K, 40 mM SDS (stated as the ionic strength), none (ligand 0.5 mM, Cu(II):ligand 0.9:1), Cu(II)-bound peptide (1:1 complex) in SDS, the titrating residue is not coordinated to the metal.
[6] abbreviates: 298 K, 40 mM SDS (stated as the ionic strength), none (ligand 0.5 mM; electrode calibrated by titrating HClO4 with NaOH), metal-free peptide in SDS, helical-like structure by CD.
Where [7] appears, read: not stated for the quoted titrations (the Figure 4 competition plot caption gives T = 298 K), metal-free peptide in water, cited from earlier work.

The term pKa denotes the pH at which an ionisable group is half protonated.

On to KCNTATCATQRLANFLVRSSNNLGPVLPPTNVGSNTY [Rat amylin (islet amyloid polypeptide, IAPP) (Rattus norvegicus)], for which the pKa in series [1] (setting [5]) is 10.04; in series [1] (setting [6]), 10.44; in series [1] (setting [7]), 10.20; in series [2] (setting [6]), 7.85; in series [2] (setting [7]), 7.13; in series [3] (setting [5]), 9.61. Also, the pKa in series [3] (setting [6]) is recorded as 10.08; in series [3] (setting [7]) it was 9.49.
Take KCNTATCATQRLANFLVHSSNNFGPILPPTNVGSNTY: the pKa is 6.76 in the series with His18 (position 18, …) (setting [6]); 5.79 in the series with His18 (position 18, …) (setting [7]); 10.89 in series [1] (setting [5]); 10.92 in series [1] (setting [6]); 10.32 in series [1] (setting [7]); 8.39 in series [2] (setting [6]). In addition, the pKa in series [2] (setting [7]) is recorded as 7.53; in series [3] (setting [5]), 10.28; in series [3] (setting [6]), 9.93; in series [3] (setting [7]) it was 9.67.
For the protein KCNTATCATQRLANFLVHSSNNFGPILPPTNVGSNTY [Ac-pramlintide (N-acetylated pramlintide) (Homo sapiens (synthetic analogue); A25P;S28P;S29P)], the pKa is reported as 7.57 in the series with His18 (position 18, …) (setting [6]); 10.50 in series [1] (setting [6]); 10.01 in series [3] (setting [6]).
KCNTATCATQRLANFLVHS [Amylin(1-19), membrane-disrupting fragment of human amylin (IAPP) (Homo sapiens)]: the pKa is on record as 7.28 in series [4] (setting [6]); 6.04 in series [4] (setting [7]); 10.05 in series [1] (setting [5]); 9.88 in series [1] (setting [6]); 10.83 in series [1] (setting [7]); 8.98 in series [2] (setting [5]). In addition, the pKa in series [2] (setting [6]) is 8.18; in series [2] (setting [7]), 7.97.
